Test results taken from patent publication US7799326B2, “Methods and compositions for cathespin k complex-mediated disorders” (Mount Sinai School of Medicine, priority 2001, dated 2010).
Entries after “also recorded” stand apart in the source; their conditions may differ.

Key:
gelatin = assay: Gelatin hydrolysis by cathepsin K mutant proteins; format: biochemical
[1] = Mobility shift assay of complex formation of proteases with CSA; format: binding
Method: The gel was run at about 25° C. 55 V, 250 mA for 30 min, then dried and developed the radio signal on a film.

type I collagen = assay: Type I collagen hydrolysis by cathepsin K mutant proteins; format: biochemical, bovine; settings: 800 nM protein, 0.4 mg/ml collagen, 0.15% CSA, 8 h at 28 C, pH 5.5
Method: (§1) The mutant proteins were generated to characterize cluster 1:K77A, R79A (mutant 1), K103, K106A, R108A, R111A, (mutant 2), K77A, R79A, K103, K106A, R108A,R111A (mutant 3), K77A, R79A, K103, K106A, R108A,R111A, K122A, R127A (mutant 4). Mutant proteins were expressed in Pichia pastoris and the activity of the protein was determined towards two synthetic peptide substrates, gelatin and type I native collagen. […] The cleavage products were separated by SDS polyacrylamide electrophoresis using 4-20% Tris Glycine gels.

[2] = Activity of cathepsin K mutant proteins towards synthetic peptide substrates; format: biochemical; settings: Example 17 mutants
Method: as §1

B1: Y212C: pycnodysostosis-causing cathepsin K mutant (protein, UniProt P43235 115-329, looked up, variant Y212C)
Cathepsin K: APDSVDYRKKGYVTPVKNQGQCGSCWAFSSVGALEGQLKKKTGKLLNLSPQNLVDCVSENDGCGGGYMTNAFQYVQKNRGIDSEDAYPYVGQEESCMCNPTGKAAKCRGYREIPEGNEKALKRAVARVGPVSVAIDASLTSFQFYSKGVYYDESCNSDNLNHAVLAVGYGIQKGNKHWIIKNSWGENWGNKGYILMARNKNNACGIANLASFPKM
gelatin hydrolysis by the protease (gelatin; 1 nM Y212C, 0.15% CSA, 37 C for 8 h): exhibited gelatinase activity | complex formation with CSA ([1]; 0.2 μg/ml and 1000 μg/ml CSA): unable to form a complex with CSA

B2: mutant 1: cathepsin K mutant K77A, R79A (protein, UniProt P43235 115-329, looked up, variant K77A R79A)
Cathepsin K: APDSVDYRKKGYVTPVKNQGQCGSCWAFSSVGALEGQLKKKTGKLLNLSPQNLVDCVSENDGCGGGYMTNAFQYVQANAGIDSEDAYPYVGQEESCMYNPTGKAAKCRGYREIPEGNEKALKRAVARVGPVSVAIDASLTSFQFYSKGVYYDESCNSDNLNHAVLAVGYGIQKGNKHWIIKNSWGENWGNKGYILMARNKNNACGIANLASFPKM
degradation of type I collagen by the protease (type I collagen): complete degradation of type I collagen | degradation of type I collagen by the protease (type I collagen; listed as Mutant 1): did not reveal an inhibition

B3: mutant 5: cathepsin K mutant K9E (protein, UniProt P43235 115-329, looked up, variant K9E)
Cathepsin K: APDSVDYREKGYVTPVKNQGQCGSCWAFSSVGALEGQLKKKTGKLLNLSPQNLVDCVSENDGCGGGYMTNAFQYVQKNRGIDSEDAYPYVGQEESCMYNPTGKAAKCRGYREIPEGNEKALKRAVARVGPVSVAIDASLTSFQFYSKGVYYDESCNSDNLNHAVLAVGYGIQKGNKHWIIKNSWGENWGNKGYILMARNKNNACGIANLASFPKM
degradation of type I collagen by the protease (type I collagen): strongly inhibited; also recorded: significantly reduced | activity towards gelatin compared with wild type (gelatin; Example 17 mutants): fully active | activity towards synthetic peptide substrates compared with wild type [2]: fully active | complex formation with CSA ([1]; Example 17 mutants, gel-mobility assay): still revealed complex formation

B4: Cat S: human cathepsin S, closely related cysteine protease (protein, UniProt P25774 115-331, looked up)
Cathepsin S: LPDSVDWREKGCVTEVKYQGSCGACWAFSAVGALEAQLKLKTGKLVSLSAQNLVDCSTEKYGNKGCNGGFMTTAFQYIIDNKGIDSDASYPYKAMDQKCQYDSKYRAATCSKYTELPYGREDVLKEAVANKGPVSVGVDARHPSFFLYRSGVYYEPSCTQNVNHGVLVVGYGDLNGKEYWLVKNSWGHNFGEEGYIRMARNKGNHCGIASFPSYPEI
complex formation with CSA ([1]; 50 ng [125I]DCG-04 labeled protease, 0.1% CSA): Only cathepsin K formed a stable complex
